# Test system: occluded carotid artery
# Test: Experimental thrombosis and thrombolysis of the carotid artery (electrolytic injury, rtPA/anticoagulant combination, vessel recanalization)
# Type: in vivo, mice
# Details: rtPA therapy alone, 10 mg/kg bolus/infusion, blood flow assessed for 60 minutes
# Method: Thrombosis: Electrolytic injury was used to generate in situ thrombotic occlusion of the carotid artery in anaesthetised mice, as described (Jackson et al, Nature Medicine 2005; Schoenwaelder et al, J Biol Chem, 2007). Baseline blood flow through the carotid artery was measured using an ultrasound Doppler flow probe. The flow probe was removed, and vessel injury was delivered in the presence of stasis, through placement of a distal haemostatic clamp (Micro Serrefine Clamp, 18055-05, Fine Science Tools, Canada). Delivery of an electrical current (8 mA or 28 mA for 3 minutes) was achieved using a lesion making device (Model 53500, Ugo Basile, Comerio, VA, Italy), with the injury site flushed constantly with saline to prevent tissue dehydration. […]
# Thrombolysis: Intravenous thrombolysis was commenced 15 minutes following stable thrombotic vessel occlusion, as monitored with the flow probe. rtPA was administered via jugular catheter using a Harvard Apparatus syringe pump (Cat #704504; Pump Elite 11 I/W Single Syringe Pump, NSW, Australia). […] Carotid artery blood flow was assessed for 60 minutes following commencement of treatment. […] Following thrombolytic therapy, return of carotid artery blood flow was assessed using the mean blood flow recorded with LabChart software (version 7.0, ADInstruments, NSW, Australia). […]
molecule,measurement,value
"rtPA: thrombolytic agent recombinant tissue plasminogen activator (protein, UniProt P00750 36-562, looked up) Tissue-type plasminogen …: SYQVICRDEKTQMIYQQHQSWLRPVLRSNRVEYCWCNSGRAQCHSVPVKSCSEPRCFNGGTCQQALYFSDFVCQCPEGFAGKCCEIDTRATCYEDQGISYRGTWSTAESGAECTNWNSSALAQKPYSGRRPDAIRLGLGNHNYCRNPDRDSKPWCYVFKAGKYSSEFCSTPACSEGNSDCYFGNGSAYRGTHSLTESGASCLPWNSMILIGKVYTAQNPSAQALGLGKHNYCRNPDGDAKPWCHVLKNRRLTWEYCDVPSCSTCGLRQYSQPQFRIKGGLFADIASHPWQAAIFAKHRRSPGERFLCGGILISSCWILSAAHCFQERFPPHHLTVILGRTYRVVPGEEEQKFEVEKYIVHKEFDDDTYDNDIALLQLKSDSSRCAQESSVVRTVCLPPADLQLPDWTECELSGYGKHEALSPFYSERLKEAHVRLYPSSRCTSQHLLNRTVTDNMLCAGDTRSGGPQANLHDACQGDSGGPLVCLNDGRMTLVGIISWGLGCGQKDVPGVYTKVTNYLDWIRDNMRP",vessel recanalization,remains occluded

# Source: patent US20230416341A1, “IMPROVED THROMBIN INHIBITORS FOR TREATMENT OF THROMBOEMBOLIC CONDITIONS” (priority 2020, published 2023)
